Assay results taken from patent US20240270825A1 (CENTIVAX, published 2024).

How the values were obtained:
[1] = molecular target: T1, MERS Receptor Binding Domain (RBD) protein (Middle East Respiratory Syndrome (MERS) …, UniProt K9N5Q8 367-606); assay: SPR Carterra LSA, scFv captured via anti-V5
T1 construct: also called Middle East Respiratory Syndrome (MERS) virus
T1 sequence: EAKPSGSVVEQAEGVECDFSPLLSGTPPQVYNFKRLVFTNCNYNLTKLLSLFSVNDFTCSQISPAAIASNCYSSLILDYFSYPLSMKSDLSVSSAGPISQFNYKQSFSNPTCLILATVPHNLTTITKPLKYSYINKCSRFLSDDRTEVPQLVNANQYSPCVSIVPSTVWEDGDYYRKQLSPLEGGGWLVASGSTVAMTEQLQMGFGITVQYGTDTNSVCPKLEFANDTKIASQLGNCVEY

[2] = molecular target: T2, SARS-CoV-1 Receptor Binding Domain (RBD) protein (SARS-CoV-1, UniProt P59594 306-527); assay: SPR Carterra LSA, scFv captured via anti-V5
T2 construct: also called SARS1

[3] = molecular target: SARS-CoV-2 Receptor Binding Domain (RBD) protein (SARS-CoV-2, UniProt P0DTC2 319-541); assay: SPR Carterra LSA, scFv captured via anti-V5, 1:1 fit

B1: COVID19_P21_F08 (scFv, V domains shown)
VH: QVQLVQSGAEVKKPGSSVKVSCKASGGTFSTYAFNWVRQAPGQGLEWMGVINTGGGSVTYAQKFQGRVTITADESTSTAYMELSSLRSEDTAVYYCAGGSGISTPGAVWGQGTLVTVSS
VL: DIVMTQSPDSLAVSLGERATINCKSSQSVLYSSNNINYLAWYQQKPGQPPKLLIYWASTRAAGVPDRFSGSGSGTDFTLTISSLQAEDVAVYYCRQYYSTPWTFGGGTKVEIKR
[1]
  binding result: no binding (tested: 300 nM)
[2]
  binding result: no binding (tested: 300 nM)

B2: COVID19_P21_A12 (scFv, V domains shown)
VH: QVQLVQSGAEVKKPGSSVKVSCKASGGTFSSYAISWVRQAPGQGLEWMGSVIPVFGRPNYAQKFQGRVTITADESTSTAYMELSSLRSEDTAVYYCAGEWGISTPMDVWGQGTLVTVSS
VL: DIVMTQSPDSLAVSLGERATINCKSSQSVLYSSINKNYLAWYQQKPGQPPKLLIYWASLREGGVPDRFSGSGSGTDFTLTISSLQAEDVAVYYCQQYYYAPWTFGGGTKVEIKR
[1]
  binding result: no binding (tested: 300 nM)
[2]
  binding result: no binding (tested: 300 nM)

B3: COVID19_P21_B08 (scFv, V domains shown)
VH: QVQLVQSGAEVKKPGSSVKVSCKASGGTFSSYAISWVRQAPGQGLEWMGVINTGGGSVTYAQKFQGRVTITADESTSTAYMELSSLRSEDTAVYYCAGHWGISTPMDVWGQGTLVTVSS
VL: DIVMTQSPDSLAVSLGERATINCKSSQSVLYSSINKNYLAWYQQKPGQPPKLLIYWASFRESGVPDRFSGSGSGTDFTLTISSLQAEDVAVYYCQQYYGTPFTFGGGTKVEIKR
[1]
  binding result: no binding (tested: 300 nM)
[2]
  binding result: no binding (tested: 300 nM)

B4: COVID19_P21_F11 (scFv, V domains shown)
VH: QVQLVQSGAEVKKPGSSVKVSCKASGGTFSSYAISWVRQAPGQGLEWMGIIYPGDSTARYSQKFQGRVTITADESTSTAYMELSSLRSEDTAVYYCAGGSGISTLYDVWGQGTLVTVSS
VL: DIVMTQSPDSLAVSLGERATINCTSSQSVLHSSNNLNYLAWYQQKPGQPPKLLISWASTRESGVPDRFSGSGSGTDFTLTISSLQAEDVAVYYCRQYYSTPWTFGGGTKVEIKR
[1]
  binding result: no binding (tested: 300 nM)
[2]
  binding result: no binding (tested: 300 nM)
[3]
  Kd: 1.1 nM
  koff: 5.7e-05 s⁻¹

B5: COVID19_P22_B12 (scFv, V domains shown)
VH: QVQLVQSGAEVKKPGSSVKVSCKASGGTLSSYAISWVRQAPGQGLEWMGIIYPGDSETRYSQKFQGRVTITADESTSTAYMELSSLRSEDTAVYYCAGGSGISTPRSVWGQGTLVTVSS
VL: DIVMTQSPDSLAVSLGERATINCKSSRILSYSPDNKNYLAWYQQKPGQPPKLLIYWASTRESGVPDRFSGSGSGTDFTLTISSLQAEDVAVYYCQQSYITPYTFGGGTKVEIKR
[1]
  binding result: no binding (tested: 300 nM)
[2]
  binding result: no binding (tested: 300 nM)

B6: COVID19_P21_F04 (scFv, V domains shown)
VH: QVQLVQSGAEVKKPGSSVKVSCKASGGTFSSYAISWVRQAPGQGLEWMGQINPSGDSTRYAQKFQGRVTITADESTSTAYMELSSLRSEDTAVYYCAGGSGISTPMDVWGQGTLVTVSS
VL: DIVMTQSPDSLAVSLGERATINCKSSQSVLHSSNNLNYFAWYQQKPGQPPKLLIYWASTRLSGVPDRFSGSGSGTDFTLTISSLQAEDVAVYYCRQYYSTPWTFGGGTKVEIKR
[1]
  binding result: no binding (tested: 300 nM)
[2]
  binding result: no binding (tested: 300 nM)
